From publication PMC12240541 (Science (New York, N.Y.), 2021)

B1: S2L20 mAb (antibody, V domains shown)
VH: EVQLVESGGGVVQPGGSLRLSCAASGFTFNSYGMHWVRQAPGKGLEWVAFIRYDGGNKYYADSVKGRFTISRDNSKNTLYLQMKSLRAEDTAVYYCANLKDSRYSGSYYDYWGQGTLVTVS
VL: not shown
notes: copies: 2 + 2
B2: S2X303 mAb (antibody, V domains shown)
VH: QITLKESGPTLVKPTQTLTLTCKLSGFSVNTGGVGVGWIRQPPGKALEWLALIYWNDDKLYSPSLKSRLTVTKDTSKNQVVLTMTNMDPVDTATYYCAHVLVWFGEVLPDAFDVWGQGTMVTVSS
VL: SYELTQPPSVSVSPGQTASITCSGDKLGETYASWYQQKPGQSPILVIYQDNKRPSGIPERFSGSNSENTATLTISGTQTMDEADYYCQAWDKTIAGFGGGTKLTV
notes: copies: 2 + 2

Molecular target: recombinant SARS-CoV-2 wildtype Wuhan-Hu-1 S ectodomain trimer (SARS-CoV-2, Wuhan-Hu-1, UniProt P0DTC2)
Assay: ELISA
Details: both partners purified

Binder | binding result
B1 | binds
B2 | binds
